Results reported in the supplement of paper PMC10567573.
± gives the standard deviation.

Assay: protein stability index of a GFP-peptide fusion (GPS, HEK-293T) (PSI 1-6); higher = more stable
Conditions: c terminus: a fixed tail appended
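Further: 24-mer peptide tiles fused after GFP, lentivirally expressed, FACS-sorted into six equal bins by GFP/DsRed ratio, decoded by Illumina sequencing, PSI is the read-weighted mean bin number.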

Row | Sequence | protein stability index (treatment: DMSO) | protein stability index (treatment: MLN4924 1 uM, 8 h)
1 | SSQESGEEAGSQENHPQESKGQPR [CHGB] | 5.7 ± 0.16 | 5.73 ± 0.097
2 | QEELTRINQSFTGAERKAALCELL [IQUB] | 3.41 ± 0.28 | 3.63 ± 0.17
3 | YPVGRFPSLHVVKVLLDCGADPDS [FEM1A] | 2.12 ± 0.17 | 2.38 ± 0.51
4 | EGRLRYPSRREPPPRRSRSRSHDR [CLK3] | 5.33 ± 0.31 | 5.45 ± 0.1
5 | LVPETEDDRKLAALLKFHTLDSYE [YJU2B] | 3.62 ± 0.34 | 3.58 ± 0.22
6 | ISVQNYKQVCKIAALHGLEETKKL [KLHL14] | 2.29 ± 0.24 | 2.31 ± 0.3
7 | MAALSRALGPLRTPAPPLWIGLFL | 2.35 ± 0.26 | 2.28 ± 0.63
8 | VTKSPEKRSSLPRPSSILPPRRGV [MAP2] | 4.58 ± 0.16 | 4.72 ± 0.19
9 | AMFLGDAAAHWYGGAEMRTQHWPI [MYORG] | 2.41 ± 0.81 | 2.17 ± 0.25
10 | GQCQVLVQRSPWLMMRMGILGRGL [TCAP] | 2.2 ± 0.14 | 2.14 ± 0.16
11 | QSLAQPLPGNTTEATPRSLRASGS | 4.93 ± 0.33 | 5.13 ± 0.18
12 | QFILRVSPDLEWHAACLKCAECSQ [ISL2] | 2.16 ± 0.34 | 2.19 ± 0.34
13 | SLGELCHPVPLSFEPVKSFFKGLV [TRIM14] | 2.47 ± 0.7 | 1.89 ± 0.17
14 | PTEGQGSLLTNWPSVPPTIKEEEN [MYBL2] | 5.46 ± 0.23 | 5.42 ± 0.18
15 | KLKLVALHKQVLMGPYNPDTCPEV [ACBD3] | 2.38 ± 0.28 | 2.72 ± 0.32
16 | GWLSVSDDLTSVTNHGYRVQVENP [TRIM35] | 3.12 ± 0.17 | 3.24 ± 0.18
17 | TCPSSSTASSISSSGGSSGSSSDN [DYRK1B] | 5.35 ± 0.16 | 5.48 ± 0.21
18 | LNPSKLMEKEINGSKVTCRGLLEY [ATL3] | 2.92 ± 0.29 | 2.96 ± 0.2
19 | RPTPQDWLHRRAQILEILRRRPWA [ADAMTS4] | 2.63 ± 0.13 | 3.1 ± 0.48
20 | KGALQKKPLYVAFSFMYILVGLTV [KCNK9] | 3.46 ± 0.47 | 2.85 ± 0.51
21 | RKRKQSGHSPARAGKQRMKEKEQE [DDIT3] | 5.15 ± 0.34 | 5.51 ± 0.38
22 | LVYLGDLSRYQNELAGVDTELLAE [SMG5] | 2.51 ± 0.2 | 2.74 ± 0.11

Row | Sequence | protein stability index (treatment: DMSO) | protein stability index (treatment: MLN4924 1 uM, 8 h)
23 | QGLKLYAVEISDHPGEHEVGEPEF [CPXM2] | 4.5 ± 0.55 | 5.11 ± 0.06
24 | PWAVDPAFAERYAPDKTSTVLTRH [PDLIM7] | 3.57 ± 0.24 | 3.56 ± 0.25
25 | KVKKSGSRVMFLLVDKETDKRHVE [PDZK1] | – | 3.4 ± 0.19
26 | EVFRFVQSCARAVVPSYIPLVKKH [CPOX] | 2.12 ± 0.21 | 2.37 ± 0.33
27 | HKSHRGMTPAEAEMHFLENAKKLS [EPB41L3] | 4.38 ± 0.21 | 4.25 ± 0.47
28 | KKLRFHPKQLYFSARQGELQKVLL [EHMT1] | 3.28 ± 0.71 | 2.63 ± 0.45
29 | PKPDRLLVLKVLWNDFLMCYSSRP [SLC19A2] | 2.89 ± 0.2 | 3.08 ± 0.46
30 | KSTSIQVIVKEGGLKLIQIQDNGT [MLH1] | 2.18 ± 0.53 | 2.54 ± 0.56
31 | QTESALSKKLRAILPKQSRKSMLD [LCOR] | 3.05 ± 0.098 | 3.14 ± 0.2
32 | RRERELERRELAVEQGERALERRR [ZBED3] | 5.03 ± 0.44 | 5.18 ± 0.63
33 | AAKQNHVTADDFVQTSVIGSNGYI [EHMT1] | 3.56 ± 0.17 | 3.68 ± 0.1
34 | RNQKGEQVFRLAFRSGALDLDSCS [MYORG] | 2.42 ± 0.33 | 2.48 ± 0.4
35 | FFYTAATNNPRFDKMEGNPICVQI [CRY1] | 2.92 ± 0.33 | 2.83 ± 0.67
36 | CSPALKRSHSDSLDHDIFQLIDPD [CDC25A] | 3.76 ± 0.34 | 3.72 ± 0.41
37 | HAASDPSSSSGRLSEPDPSHTLEE [SMOC2] | 5.31 ± 0.29 | 5.43 ± 0.15
38 | FTFLQPLPLSPGVLSSTPDHSFSL [ATF4] | 2.2 ± 0.33 | 2.19 ± 0.33
39 | MVPHNLETTERMKCLYYLYATLDL [PDS5B] | 2.14 ± 0.29 | 2.16 ± 0.38
40 | NCKPLKSYMLQDSLEHVQLFDLMR [CLK3] | 2.11 ± 0.31 | 2.25 ± 0.35
41 | SNLHRHQRTHTGEKPYKCPECGEI [ZNF263] | 4.22 ± 0.41 | 4.53 ± 0.22
42 | VLQSVRELSRSRKLYGQRERVWAL [FCHSD1] | 2.06 ± 0.24 | 2.37 ± 0.25
43 | LRGPSPWGFRLVGGRDFSAPLTIS [PDLIM4] | 2.79 ± 0.2 | 2.44 ± 0.22
